PMC6128732

Biological target: Biotinylated Xenopus laevis XRCC4-Avitag (Xenopus laevis)
Assay: BLI

Xenopus laevis XLF^1-226 (C-terminally truncated XLF) (from UniProt A0A1L8ENT6 1-226) (domain or fragment)
Kd: 280 nM
